Data as given in patent US11299524B2, “KIF13B-derived peptide and method of inhibiting angiogenesis” (THE BOARD OF TRUSTEES OF THE UNIVERSITY OF ILLINOIS, priority 2016, dated 2022).

What was measured:
[1] = biological target: VEGFR2 (Homo sapiens, UniProt P35968); assay: surface plasmon resonance (SPR) with BIACORE; assay type: binding; set-up: recombinant cytosolic domain of kinases (Fisher Scientific); purchased Fisher Scientific; conditions: peptide on avidin-coated chip, recombinant cytosolic domain of kinase
Method: (§1) Additionally, the sequence of DUF2C5 is highly conserved in mammalian KIF13B. […] To further test the specificity of DUF2C5, pull-down of proteins was conducted using DUF2C5 or control peptide (CT23) immobilized on streptavidin beads followed by mass spec analysis of the binding proteins. This analysis detected the presence of KIF13B, VEGFR2, and co-receptor NRP1 (number of hits were 28, 11, and 5, respectively). Tie2, Par1, S1PR1, and FGFR were not found. Other cargo for KIF13B (e.g., CentA, hDlg) were also not found. […] The affinity of each receptor tyrosine kinase was subsequently tested via surface plasmon resonance (SPR) with BIACORE (UIC, RRC), using DUF2C5 and CT23 on an avidin-coated chip, and recombinant cytosolic domain of kinases (Fisher Scientific).

[2] = biological target: T1, EGFR (Homo sapiens, UniProt P00533); assay: pull-down on streptavidin beads followed by mass spec analysis; assay type: binding; conditions: peptide immobilized on streptavidin beads
T1 construct: endogenous in cells
Method: as §1

[3] = biological target: T2, PDGFRβ (Homo sapiens, UniProt P09619); assay: as above; assay type: binding; conditions: peptide immobilized on streptavidin beads
T2 construct: endogenous in cells
Method: as §1

[4] = biological target: T3, PDGFRα (Homo sapiens, UniProt P16234); assay: as above; assay type: binding; conditions: peptide immobilized on streptavidin beads
T3 construct: endogenous in cells
Method: as §1

[5] = test system: choroidal neovascularization; assay: laser-induced choroidal neovascularization (CNV); assay type: in vivo, mouse; conditions: eye drop, 2 μg/eye daily
Method: FIG. 5A and FIG. 5B show the effect of DUF2C5 treatment on laser-induced CNV. FIG. 5A, Dose-dependent effect of DUF2C5 was tested by intravitreal injection of DUF2C5 0.5 μg, 2 μg, and 10 μg after laser photocoagulation. Neovascularization was assessed by the area of ILB4-staining, and plotted in the graph (N=5 mice in each group, and 4 laser burns were induced in each mouse). Asterisks indicate p<0.05, One-way ANOVA. FIG. 5B, Effect of DUF2C5 as an eye drop was tested in CNV model. After laser photocoagulation, mice were treated daily with either control peptide (2 μg/eye) or DUF2C5 (2 μg/eye) for […]. Neovascularization was assessed by the area of ILB4-staining, and plotted in the graph (N=7 mice in each group, and 4 laser burns were induced in each mouse). Asterisks indicate p<0.05, t-test. […]
Choroidal neovascularization was evaluated by ocular coherence tomography (OCT) and fluorescein angiography at day 7 and 14. […]
The experiments were terminated at day 14 after taking images of OCT and angiography. […] The area of vascular leakage and CNV was quantified using confocal image of CNV staining for lectin B4 using MetaMorph software. Data was plotted and analyzed statistically with Prism 6 (Graph Pad, San Diego Calif.). […]
The effect of DUF2C5 as an eye drop was subsequently tested. […] Neovascularization was assessed by OCT, fluorescein angiography, and staining with ILB4.

[6] = test system: HUVECs; assay: fibrin gel sprouting assay (3-dimensional culture of HUVECs on beads); assay type: cell-based, human; conditions: 1 μmol/L, VEGF-induced EC sprouting
Method: Collagen invasion assay was performed as previously described (Kang, et al. (2011) J. Biol. Chem. 286:42017-26). In vitro capillary network formation on […] (BD Biosciences, San Jose, Calif.) and scratch wound healing assay were performed as previously described (Humtsoe, et al. (2010) Mol. Cell Biol. 30:1593-1606). Fibrin gel sprouting assay was performed as described by Nakatsu & Hughes ((2008) Methods Enzymol. 443:65-82). VEGF (2.2 nmol/L) stimulation was used for all in vitro angiogenesis assays. Transwell migration assay was performed as described by Kaplan, et al. ((2011) Free Radical Res. 45:1124-35) using VEGF (4.4 nmol/L), sphingosine-1-phosphate (S1P) (1 μmol/L), or basic fibroblast growth factor (bFGF) (50 ng/mL) in the presence or absence of kinesin-derived angiogenesis inhibitor (DUF2C5; residues 1238-1260 of KIF13B) at varying concentrations.
Changes in VEGF-induced network formation assay were assessed in […] plugs. […] VEGF-induced EC sprouting was also determined by 3-dimensional culture of HUVECs on beads (Nakatsu & Hughes (2008) Methods Enzymol. 443:65-82).

T3 sequence (P16234 24-1089): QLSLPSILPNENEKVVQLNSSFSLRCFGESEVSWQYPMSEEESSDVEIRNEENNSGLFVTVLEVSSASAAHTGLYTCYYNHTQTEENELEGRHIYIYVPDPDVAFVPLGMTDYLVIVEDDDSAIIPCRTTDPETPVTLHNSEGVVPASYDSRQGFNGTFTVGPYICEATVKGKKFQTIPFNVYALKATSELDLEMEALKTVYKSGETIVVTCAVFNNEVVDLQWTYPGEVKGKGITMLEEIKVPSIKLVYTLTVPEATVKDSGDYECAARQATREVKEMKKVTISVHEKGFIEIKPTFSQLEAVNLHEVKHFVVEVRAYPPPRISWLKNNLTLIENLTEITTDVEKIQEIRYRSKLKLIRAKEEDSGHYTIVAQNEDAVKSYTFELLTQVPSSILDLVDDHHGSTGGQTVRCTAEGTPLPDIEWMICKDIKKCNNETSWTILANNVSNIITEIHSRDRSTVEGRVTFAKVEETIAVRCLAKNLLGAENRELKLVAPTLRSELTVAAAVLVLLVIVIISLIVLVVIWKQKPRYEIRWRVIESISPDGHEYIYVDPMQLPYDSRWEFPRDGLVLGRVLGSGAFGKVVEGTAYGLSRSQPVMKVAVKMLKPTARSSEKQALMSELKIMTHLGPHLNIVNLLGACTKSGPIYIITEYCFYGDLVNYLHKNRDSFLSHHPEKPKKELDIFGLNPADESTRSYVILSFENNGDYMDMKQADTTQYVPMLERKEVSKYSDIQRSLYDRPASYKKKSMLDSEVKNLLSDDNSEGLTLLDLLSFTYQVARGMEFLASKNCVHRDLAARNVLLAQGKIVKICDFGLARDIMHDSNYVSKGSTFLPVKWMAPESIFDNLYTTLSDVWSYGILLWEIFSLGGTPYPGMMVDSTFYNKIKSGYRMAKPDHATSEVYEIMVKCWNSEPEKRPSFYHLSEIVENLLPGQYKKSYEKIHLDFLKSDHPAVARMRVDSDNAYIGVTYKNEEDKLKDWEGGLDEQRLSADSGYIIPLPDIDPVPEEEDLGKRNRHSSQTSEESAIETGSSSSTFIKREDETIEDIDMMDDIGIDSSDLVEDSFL
T2 sequence (P09619 33-1106): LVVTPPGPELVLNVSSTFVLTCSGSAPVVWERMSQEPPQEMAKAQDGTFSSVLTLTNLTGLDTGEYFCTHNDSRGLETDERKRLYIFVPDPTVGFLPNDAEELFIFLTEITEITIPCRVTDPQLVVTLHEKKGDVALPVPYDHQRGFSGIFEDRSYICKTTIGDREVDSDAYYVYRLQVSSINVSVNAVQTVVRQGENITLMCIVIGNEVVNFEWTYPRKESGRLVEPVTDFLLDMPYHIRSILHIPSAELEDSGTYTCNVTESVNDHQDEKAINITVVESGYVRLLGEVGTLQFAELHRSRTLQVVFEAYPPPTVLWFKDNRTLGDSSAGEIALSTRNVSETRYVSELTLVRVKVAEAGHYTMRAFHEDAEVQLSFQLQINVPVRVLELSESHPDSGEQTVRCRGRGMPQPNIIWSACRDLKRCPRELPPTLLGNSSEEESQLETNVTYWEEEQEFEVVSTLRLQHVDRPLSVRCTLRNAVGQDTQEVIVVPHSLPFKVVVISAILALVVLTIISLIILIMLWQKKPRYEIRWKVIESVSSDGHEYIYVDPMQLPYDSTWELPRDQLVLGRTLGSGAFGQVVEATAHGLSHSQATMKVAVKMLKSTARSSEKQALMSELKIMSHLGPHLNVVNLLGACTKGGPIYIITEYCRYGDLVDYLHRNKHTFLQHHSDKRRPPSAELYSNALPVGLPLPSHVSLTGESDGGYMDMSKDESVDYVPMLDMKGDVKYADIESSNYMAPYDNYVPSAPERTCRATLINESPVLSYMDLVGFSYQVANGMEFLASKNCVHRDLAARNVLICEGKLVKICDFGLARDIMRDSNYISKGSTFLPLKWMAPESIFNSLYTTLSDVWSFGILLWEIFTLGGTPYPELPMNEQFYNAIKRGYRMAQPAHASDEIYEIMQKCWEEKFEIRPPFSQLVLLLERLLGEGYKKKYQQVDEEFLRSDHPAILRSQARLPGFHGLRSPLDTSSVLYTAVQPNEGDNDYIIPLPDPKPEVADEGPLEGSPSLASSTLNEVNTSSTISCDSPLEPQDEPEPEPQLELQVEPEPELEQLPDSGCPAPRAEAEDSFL
Sequence of VEGFR2 (P35968 786-1356 limits assumed, species assumed): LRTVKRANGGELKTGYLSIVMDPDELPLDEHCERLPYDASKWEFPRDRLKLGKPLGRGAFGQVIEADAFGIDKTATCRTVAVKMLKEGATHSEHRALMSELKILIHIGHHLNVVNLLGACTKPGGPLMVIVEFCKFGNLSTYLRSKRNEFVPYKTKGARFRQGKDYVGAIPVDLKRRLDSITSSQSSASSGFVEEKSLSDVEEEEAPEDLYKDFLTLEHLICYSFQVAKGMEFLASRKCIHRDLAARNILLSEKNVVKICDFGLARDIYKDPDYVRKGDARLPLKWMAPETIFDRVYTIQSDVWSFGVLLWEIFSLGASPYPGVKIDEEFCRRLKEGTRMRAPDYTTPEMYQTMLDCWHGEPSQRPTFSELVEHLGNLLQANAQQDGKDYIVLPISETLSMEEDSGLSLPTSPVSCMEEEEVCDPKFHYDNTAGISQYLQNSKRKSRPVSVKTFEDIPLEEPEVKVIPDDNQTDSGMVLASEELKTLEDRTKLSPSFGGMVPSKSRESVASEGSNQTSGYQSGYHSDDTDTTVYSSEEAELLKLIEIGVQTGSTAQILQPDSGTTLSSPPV

KD value, VEGFR2 [1]: did not bind
EGFR among binding proteins, number of hits [2]: did not interact
PDGFRβ among binding proteins, number of hits [3]: did not interact
PDGFRα among binding proteins, number of hits [4]: did not interact
Substance: CT23: negative control, C-terminal 23-amino acid peptide, residues 1650 to 1672 of KIF13B (RVRASELRSFSRMLAGDPGCSPG)
neovascularization (laser-induced CNV) [5]: did not have any effect
number of branching point structures per bead [6]: 4-6 branches
number of sprouts per bead [6]: 13-16 sprouts
